Assay results as given in paper PMC8188212, “Multi‐Arm PEG/Peptidomimetic Conjugate Inhibitors of DR6/APP Interaction Block Hematogenous Tumor Cell Extravasation” (Advanced Science, 2021).
Square brackets hold non-standard residues; d marks the D form. Side chains are listed from the residue outwards. Ends that are not written are not given here. maleimide = maleimide: 4-arm PEG5k maleimide reacting with the C-terminal Cys thiol

Target: T1, DR6/APP interaction (B16F10, SGC-996, LLC1 TCs on DR6 protein coated plates) (Homo sapiens, UniProt O75509)
T1 construct: His tag (inferred from RED-tris-NTA labelling of the same purchased protein in the MST assay); purchased Sino Biology, Inc. (Shanghai, China); host or cells: DR6 coated on 96-well plates; tumour cells B16F10, SGC-996, LLC1 carry endogenous APP
T1 sequence (O75509 42-349 limits assumed): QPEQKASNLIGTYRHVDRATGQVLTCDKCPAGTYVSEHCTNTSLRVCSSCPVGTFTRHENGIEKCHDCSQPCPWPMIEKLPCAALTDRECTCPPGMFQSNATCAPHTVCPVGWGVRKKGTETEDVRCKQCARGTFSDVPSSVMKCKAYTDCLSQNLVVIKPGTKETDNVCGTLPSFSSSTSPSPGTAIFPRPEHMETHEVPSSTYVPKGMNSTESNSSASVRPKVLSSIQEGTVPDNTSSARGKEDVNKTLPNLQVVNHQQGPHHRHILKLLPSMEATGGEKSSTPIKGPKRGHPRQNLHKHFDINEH
Test: Cell attachment of TCs to DR6-coated plates
Assay type: cell-based
Conditions: 1 h at 37 °C, crystal violet, microplate reader, n = 3
Method: DR6 protein in 50 µL PBS (50 × 10^–9 M) was added into 96‐well plates. The 96‐well plates were incubated for 2 h at 37 °C, followed by drying overnight at 4 °C. Next day, the 96‐well plates were warmly washed three times with PBS, and then blocked by PBS containing 1% BSA for 1 h at 37 °C. The plates were washed three times with PBS. TCs were suspended in serum‐free DMEM at a density of 3 × 10^5 cells mL^–1; 50 µL of the cell suspension was added to wells coated with the DR6‐targeting peptides. Different concentrations of DR6‐targeting peptides or PBS were added into the plates. After incubation at 37 °C for 1 h, non‐adherent cells were gently washed away with PBS, fixed with 4% paraformaldehyde at room temperature for 30 min, washed, stained with 5% crystal violet 50 µL per well for 10 min, gently washed with PBS, and decolorized with 33% acetic acid. The attachment cell number was measured by a microplate reader.^[ ^53 ^]

disruption of attachment between TCs and DR6-coated plates: most obvious disruption of attachment
Substance: PEG-tAHP-DRI: tetra-(D-retro-inverso isomer of AHP-12) substitued 4-arm PEG5k ([dP][dT][dT][dA][dD][dI][dT]C([maleimide-4‑arm PEG5k]); also: four peptides on one 4-arm PEG5k)
